Measurements published in the Immune Epitope Database (IEDB).

Columns and labels:
Test in all cases: IEDB peptide-MHC binding, purified MHC/competitive/fluorescence; filed as Kd, often an IC50 or EC50 that approximates it; ≥ and ≤ were set here for values at or beyond the usual limits of such assays
Settings in all cases: source organism: Salmonella enterica subsp. enterica serovar Typhi
HLA-B*45:06 = biological target: HLA-B*45:06
HLA-B*39:01 = biological target: HLA-B*39:01
HLA-B*08:01 = biological target: HLA-B*08:01
HLA-A*68:23 = biological target: HLA-A*68:23
HLA-B*57:01 = biological target: HLA-B*57:01
HLA-B*38:01 = biological target: HLA-B*38:01
HLA-A*30:01 = biological target: HLA-A*30:01
HLA-B*44:02 = biological target: HLA-B*44:02
HLA-A*11:01 = biological target: HLA-A*11:01
HLA-B*15:09 = biological target: HLA-B*15:09
HLA-A*02:03 = biological target: HLA-A*02:03
HLA-A*02:06 = biological target: HLA-A*02:06
HLA-C*06:02 = biological target: HLA-C*06:02
HLA-B*48:01 = biological target: HLA-B*48:01
HLA-B*15:01 = biological target: HLA-B*15:01
HLA-A*01:01 = biological target: HLA-A*01:01
HLA-A*02:01 = biological target: HLA-A*02:01
HLA-B*15:42 = biological target: HLA-B*15:42
HLA-A*03:19 = biological target: HLA-A*03:19
HLA-B*27:05 = biological target: HLA-B*27:05
HLA-A*03:01 = biological target: HLA-A*03:01
HLA-C*14:02 = biological target: HLA-C*14:02
HLA-B*51:01 = biological target: HLA-B*51:01
HLA-B*58:01 = biological target: HLA-B*58:01

## SVIDHIHYM
HLA-B*45:06
  Kd: ≥ 5 µM
HLA-B*39:01
  Kd: 2.8 µM
HLA-B*08:01
  Kd: ≥ 20 µM
HLA-A*68:23
  Kd: 0.0002 µM
HLA-B*57:01
  Kd: 1.53 µM
HLA-B*38:01
  Kd: ≥ 20 µM
HLA-A*30:01
  Kd: ≥ 20 µM
HLA-B*44:02
  Kd: ≥ 20 µM
HLA-A*11:01
  Kd: 0.0717 µM
HLA-B*15:09
  Kd: ≥ 20 µM
HLA-A*02:03
  Kd: 0.0031 µM
HLA-A*02:06
  Kd: ≤ 0.001 µM
HLA-C*06:02
  Kd: 0.026 µM
HLA-B*48:01
  Kd: ≥ 20 µM
HLA-B*15:01
  Kd: 0.145 µM
HLA-A*01:01
  Kd: ≥ 20 µM
HLA-A*02:01
  Kd: 0.0049 µM
HLA-B*15:42
  Kd: ≥ 5 µM
HLA-A*03:19
  Kd: 0.982 µM
HLA-B*27:05
  Kd: ≥ 20 µM
HLA-A*03:01
  Kd: ≥ 20 µM
HLA-C*14:02
  Kd: 0.0384 µM
HLA-B*51:01
  Kd: ≥ 20 µM
HLA-B*58:01
  Kd: 0.29 µM
